Experimental data taken from patent US20230038638A1, “COMPLEMENT FACTOR I-RELATED COMPOSITIONS AND METHODS” (published 2023).
Numbering of substitutions follows the chain as printed.

Legend:
[1] = molecular target: T1, human C4b (human) (UniProt P0C0L4)
T1 sequence: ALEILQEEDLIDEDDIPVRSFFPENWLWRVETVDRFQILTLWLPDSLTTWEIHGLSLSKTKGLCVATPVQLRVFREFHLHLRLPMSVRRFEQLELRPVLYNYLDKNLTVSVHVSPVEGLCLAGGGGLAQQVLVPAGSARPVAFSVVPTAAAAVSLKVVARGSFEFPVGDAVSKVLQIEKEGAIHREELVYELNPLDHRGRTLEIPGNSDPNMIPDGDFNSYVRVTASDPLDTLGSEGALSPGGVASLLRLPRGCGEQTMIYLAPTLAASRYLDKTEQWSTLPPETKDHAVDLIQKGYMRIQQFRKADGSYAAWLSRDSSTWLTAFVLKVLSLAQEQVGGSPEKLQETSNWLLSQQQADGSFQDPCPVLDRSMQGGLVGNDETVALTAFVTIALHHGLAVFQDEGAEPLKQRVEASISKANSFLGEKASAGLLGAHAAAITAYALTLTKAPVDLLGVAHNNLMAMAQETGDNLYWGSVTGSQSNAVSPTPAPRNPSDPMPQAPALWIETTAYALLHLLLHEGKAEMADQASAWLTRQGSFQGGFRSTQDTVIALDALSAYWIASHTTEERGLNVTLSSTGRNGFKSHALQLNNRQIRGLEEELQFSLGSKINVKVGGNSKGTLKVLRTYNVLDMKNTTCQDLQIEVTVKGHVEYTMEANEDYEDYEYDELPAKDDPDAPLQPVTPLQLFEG

[2] = molecular target: soluble human C3b (human) (UniProt P01024)
[3] = molecular target: T2, human C4b (human) (UniProt P0C0L5)
T2 sequence: T1 sequence with A151T, D317G, P364L, C365S, L368I, D369H, N420S, V451A, L454R, S530A

Chain of Δ(K1-P305); GGSSGG (SEQ ID NO: 6); fH_CCP2-4 (enzyme) (chain): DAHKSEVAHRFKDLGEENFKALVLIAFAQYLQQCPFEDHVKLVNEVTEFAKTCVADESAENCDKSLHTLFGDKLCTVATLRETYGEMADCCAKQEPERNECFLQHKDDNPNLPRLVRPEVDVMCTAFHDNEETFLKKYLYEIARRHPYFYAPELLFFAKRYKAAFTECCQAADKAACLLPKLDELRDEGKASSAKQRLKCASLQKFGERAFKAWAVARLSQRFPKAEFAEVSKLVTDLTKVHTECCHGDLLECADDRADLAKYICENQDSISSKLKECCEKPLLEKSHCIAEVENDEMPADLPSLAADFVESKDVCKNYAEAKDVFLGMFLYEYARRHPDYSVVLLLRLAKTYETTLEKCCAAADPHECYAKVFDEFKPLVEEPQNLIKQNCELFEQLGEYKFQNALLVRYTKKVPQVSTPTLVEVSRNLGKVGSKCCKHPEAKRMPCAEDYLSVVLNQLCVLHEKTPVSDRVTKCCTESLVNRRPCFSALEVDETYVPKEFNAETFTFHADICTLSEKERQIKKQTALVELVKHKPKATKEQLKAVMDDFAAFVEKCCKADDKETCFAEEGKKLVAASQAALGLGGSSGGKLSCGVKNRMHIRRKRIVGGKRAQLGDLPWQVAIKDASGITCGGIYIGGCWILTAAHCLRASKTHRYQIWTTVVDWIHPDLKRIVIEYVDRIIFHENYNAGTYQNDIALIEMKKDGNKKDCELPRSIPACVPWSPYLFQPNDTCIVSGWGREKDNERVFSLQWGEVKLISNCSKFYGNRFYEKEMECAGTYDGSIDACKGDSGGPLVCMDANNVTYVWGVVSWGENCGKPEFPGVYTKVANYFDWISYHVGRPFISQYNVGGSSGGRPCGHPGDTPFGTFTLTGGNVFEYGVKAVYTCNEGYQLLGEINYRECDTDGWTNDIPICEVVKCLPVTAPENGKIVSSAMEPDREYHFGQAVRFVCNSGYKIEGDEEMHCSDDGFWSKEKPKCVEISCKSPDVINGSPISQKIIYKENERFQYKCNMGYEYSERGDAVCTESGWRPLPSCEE

Substance	C4b Screen Ref Fold (fold of CFI-HSA wild type) [1]	iC3b Screen Ref Fold (fold of CFI-HSA wild type) [2]	also measured
CFI-HSA variant Q409D (enzyme)	–	–	C4b Screen Ref Fold (fold of reference) [1]: 0.09; iC3b Screen Ref Fold (fold of reference) [2]: 0.14
CFI-HSA variant N531P (enzyme)	–	–	C4b Screen Ref Fold (fold of reference) [1]: 0.08; iC3b Screen Ref Fold (fold of reference) [2]: -0.01
CFI-HSA E457G; F464Y (enzyme)	5.55	1.31	–
CFI-HSA variant G406D; Y408L; P535A (enzyme)	–	–	C4b Screen Ref Fold (fold of reference) [1]: 0.38; iC3b Screen Ref Fold (fold of reference) [2]: 0.23
CFI-HSA Y408L; N531G; R462K (enzyme)	3.76	1.13	–
CFI-HSA variant E461S (enzyme)	–	–	C4b Screen Ref Fold (fold of reference) [1]: 1.32; iC3b Screen Ref Fold (fold of reference) [2]: 0.95
CFI-HSA variant N531T (enzyme)	–	–	C4b Screen Ref Fold (fold of reference) [1]: 0.31; iC3b Screen Ref Fold (fold of reference) [2]: 0.19
CFI-HSA variant T346K (enzyme)	–	–	C4b Screen Ref Fold (fold of reference) [1]: 0.57; iC3b Screen Ref Fold (fold of reference) [2]: 0.96
CFI-HSA variant D425K; Y408M; E530F; F537K; K504R; P558S (enzyme)	0.11	0.01	–
CFI-HSA variant E461A (enzyme)	–	–	C4b Screen Ref Fold (fold of reference) [1]: 1.44; iC3b Screen Ref Fold (fold of reference) [2]: 1.37
CFI-HSA D425N (enzyme)	1.54	1.66	–
CFI-HSA variant K14A; Y20F; D26A; R35A; E38A (enzyme)	–	–	C4b Screen Ref Fold (fold of reference) [1]: 0.15; iC3b Screen Ref Fold (fold of reference) [2]: 0.11
CFI-HSA Y408L; N531G; F464Y (enzyme)	5.93	1	–
CFI-HSA variant L304G; P305G; K306G; L307G; S308G (enzyme)	–	–	C4b Screen Ref Fold (fold of reference) [1]: 0; iC3b Screen Ref Fold (fold of reference) [2]: 0.56
CFI-HSA Y408L; R462K (enzyme)	0.31	0.48	–
CFI-HSA H362T; R456I; S343R (enzyme)	0.08	-0.01	–
CFI-HSA D425P (enzyme)	0.29	0.72	–
CFI-HSA variant N531E (enzyme)	–	–	C4b Screen Ref Fold (fold of reference) [1]: 3.96; iC3b Screen Ref Fold (fold of reference) [2]: 0.82

Substance	C4b Screen Ref Fold (fold of CFI-HSA wild type) [1]	iC3b Screen Ref Fold (fold of CFI-HSA wild type) [2]	also measured
CFI-HSA F464L (enzyme)	0.15	0	–
CFI-HSA variant N531R (enzyme)	–	–	C4b Screen Ref Fold (fold of reference) [1]: 0.58; iC3b Screen Ref Fold (fold of reference) [2]: 0.75
CFI-HSA variant N531H (enzyme)	–	–	C4b Screen Ref Fold (fold of reference) [1]: 1.16; iC3b Screen Ref Fold (fold of reference) [2]: 0.74
CFI-HSA variant P558G (enzyme)	–	–	C4b Screen Ref Fold (fold of reference) [1]: 0.4; iC3b Screen Ref Fold (fold of reference) [2]: 1.21
CFI-HSA variant G469L; R456N; K458A; E461G; F537K (enzyme)	–	–	C4b Screen Ref Fold (fold of reference) [1]: -0.02; iC3b Screen Ref Fold (fold of reference) [2]: 0.01
CFI-HSA N531G; F464Y (enzyme)	6.48	1.47	–
CFI-HSA N531G; R462K (enzyme)	6.13	1.17	–
CFI-HSA E457G; S507A (enzyme)	0.01	-0.01	–
CFI-HSA variant Δ(K1-P305); Y408L; N531G; E457G; E461Q; R462K; F464Y (enzyme)	–	–	C4b Screen Ref Fold (fold vs CFI-HSA wild type) [3]: 0.01; iC3b Screen Ref Fold (fold vs CFI-HSA wild type) [2]: 0.03
CFI-HSA D549T (enzyme)	–	–	C4b Screen Ref Fold (fold vs CFI-HSA wild type) [3]: 1.05; iC3b Screen Ref Fold (fold vs CFI-HSA wild type) [2]: 1.09
CFI-HSA R484G (enzyme)	–	–	C4b Screen Ref Fold (fold vs CFI-HSA wild type) [3]: 0.64; iC3b Screen Ref Fold (fold vs CFI-HSA wild type) [2]: 0.77
Δ(K1-P305); GGSSGG (SEQ ID NO: 6); fH_CCP2-4 (enzyme)	–	–	C4b Screen Ref Fold (fold vs CFI-HSA wild type) [3]: 0.06; iC3b Screen Ref Fold (fold vs CFI-HSA wild type) [2]: 0.03
CFI-HSA E457G; N531G; E461Q; R462K; F464Y; GGSSGG (SEQ ID NO: 6); CR1 (ccp1-3) (from UniProt P17927) (enzyme)	–	–	C4b Screen Ref Fold (fold vs CFI-HSA wild type) [3]: 0.46; iC3b Screen Ref Fold (fold vs CFI-HSA wild type) [2]: 0.14
CFI-HSA variant E457G; WT; GGSSGG (SEQ ID NO: 6); CR1(ccp15-17) (from UniProt P17927) (enzyme)	–	0.1	C4b Screen Ref Fold (fold of CFI-HSA wild type) [3]: 6.11
CFI-HSA variant K14A; D425R (enzyme)	–	–	C4b Screen Ref Fold (fold vs CFI-HSA wild type) [3]: 0.64; iC3b Screen Ref Fold (fold vs CFI-HSA wild type) [2]: 0.99
CFI-HSA variant R462K (enzyme)	–	–	C4b Screen Ref Fold (fold vs CFI-HSA wild type) [3]: 0.27; iC3b Screen Ref Fold (fold vs CFI-HSA wild type) [2]: 0.24
CFI-HSA Y553H (enzyme)	–	–	C4b Screen Ref Fold (fold vs CFI-HSA wild type) [3]: 1.56; iC3b Screen Ref Fold (fold vs CFI-HSA wild type) [2]: 1.11
CFI-HSA variant Y553H; F559L; P558S (enzyme)	–	0.22	C4b Screen Ref Fold (fold of CFI-HSA wild type) [3]: 0.69

Second part, led by results:

C4b Screen Ref Fold (fold of CFI-HSA wild type) [1]	iC3b Screen Ref Fold (fold of CFI-HSA wild type) [2]	Substance	also measured
-0.01	0.71	CFI-HSA variant Y393G (enzyme)	–
5.72	1.19	CFI-HSA Y408L; N531G; R462K; F464Y (enzyme)	–
0.83	0.11	CFI-HSA R462K; F464Y (enzyme)	–
1.38	1.86	CFI-HSA D425I (enzyme)	–
0	-0.03	CFI-HSA variant I389G (enzyme)	–
4.92	0.59	CFI-HSA E461Q; R462K; F464Y (enzyme)	–
4.83	1.39	CFI-HSA E457G; Y408L (enzyme)	–
2.19	0.81	CFI-HSA K534W (enzyme)	–
-0.01	0.02	CFI-HSA F464A (enzyme)	–
0.03	-0.03	CFI-HSA variant N422K; S507A (enzyme)	–
3.51	0.42	CFI-HSA variant R557A; N531D; Y403F; K504Y; E457G; E461Q (enzyme)	–
1.81	1.44	CFI-HSA K534R (enzyme)	–
0.47	-0.02	CFI-HSA D506Q (enzyme)	–
0.18	0	CFI-HSA H362T; R456I; S343K (enzyme)	–
3.27	0.15	CFI-HSA K504E; Y408L; N531G (enzyme)	–
0.82	1.19	CFI-HSA K534E (enzyme)	–
0.41	-0.03	CFI-HSA D506L (enzyme)	–
